For this assay, the target named is ArdA protein from the conjugative transposon Tn916 (Enterococcus faecalis). The assay can be described thus: crystal structure.

“ArdA protein from the conjugative transposon Tn916 (natural protein)”: the stoichiometry N (commonly a count of units in the complex or per binding partner) worked out at 2.

(Values after paper PMC2731889.)
